Measured values from the nanobody polyreactivity screen of Harvey et al. (2022).

assay: yeast display, Sf9 membrane polyspecificity reagent, FACS + sequencing; frameworks hold sequencing errors
In short: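 Nanobodies from a synthetic yeast display library (Saccharomyces cerevisiae BJ5465), induced 36–48 hours with galactose, were stained 1 hour at 4 °C with 10% biotinylated, detergent-solubilized Sf9 membrane reagent, enriched on streptavidin microbeads, then FACS-sorted. Anti-HA (expression) and streptavidin (reagent binding) fluorescence set low and high (top ~1%) gates. Polyreactivity labels come from the gate of origin. Genes were colony-PCR amplified, MiSeq 2 × 250 sequenced and filtered by CDR length.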

Sequence	polyreactivity (PSR sort gate)
QVQLVESGGGIVQAGGSLRLSCAASGSIFSKYAMGWYRQAPGKERELVATISSSVGSTYYADSVKGRFTISRDNAKNTVYLQMNSLKPEDTAVYYCAARPDYEYGSHYRGGYWGQGTQVSVSS	low polyreactivity
LVQLVESGGGLVQAGGSLRLSCAASGIIFRFYDMGWYRQAPGKERELVAAISWDGTSTYYADSVKGRFTISRDNAKNTVSLQMNSQKPEDTAVYYCAADWVGSPWWYLWYGYWGQGTQVTVSS	high polyreactivity
QVQLVESGGALVQAGGSLRLSCAASGIIFNLYAKGWYRPAPGKEMELVAAITSSGTSTYYADSVKGRFTISRDNAKNTVYLQMNSLSPEDTAVYYCAAERGFYYFVEYDYWGQGTQVTVSS	high polyreactivity
QVQLVESGGGLVQAGGSLRLSCAASGFTLGWYAMGWYRQAPGKERELVAAISRSGGSTYYADSVKGRFTISRDNAKNTVYLQMNSLKPEDTAVYSCAAEVNYAGWAVWSYYWGQGTQVTVSS	high polyreactivity
QVQLVESGGGSVQAGGSLRFSCADSGFTFRKNAMGWYRQAPGKERELVAAISVSGGRTYYADSVKGRFTISRDNAKNTFYLQMNSLKPEETAVYYCAARRYVLVHKDDYWGQGTQVTVSS	high polyreactivity
QVQLVESGGGLVQAGGSLRLRCAASGYIFRYYAMGWYRQAPGKEREFVAAISRNGGSTYYADSVKGRFTISRDKAKNTVYLQMNSLKPEDTAVYNCNVVGHDDKYDYWGQGTQVTVSS	high polyreactivity
QVQLVESGGGLVQAGGSLRLRCAASGSTFVYNGMGWYRQAPGKERELVATISSTGSTNYADSVKGRFTISRDNAKNTVFLQMNSLKPEDTAVYYCATEYITYLAYDYWGQGTQVTVSS	low polyreactivity
QVQLVESGGGLVQAGGSLRLSCAASGFTFNKYAMGWYRQAPGKERELVAAISSSGGSTRYADSVKGRFTISRDNAKNTVYLQMNSLKPEDTADYYCAVYVTSDSGWWLYDYWGQGTQVTVSS	high polyreactivity
QVQLVESGGGVVQAGGSLRLTCAASGFTFSYNAMGWYRQAPGKERQLVAAISYSGGSTYYADSVKGRFTISRDTAKNTVYLQMNSLIPEHTAVYYCAAYSYYNYPNRGVYRGYYYWGQGTQGTVSS	high polyreactivity
QVQLVESGGGLVQAGGRLRLSCAASGGTFHKYAMGWYRQAPGKERELVAGISRRTGTTYYADSVKGRFTISRDNAKNTVYLQMNSLKPEDTAVYYCATDWGRYSRLSKADPSDYWGQGTHVTVSS	high polyreactivity
QVQLVESGGGLVQAGGTLRLSCAASGYTFVVYAMGWYRQAPGKERELVASISRSGGSTYYADSVKGRFTISRDNAKNTVYLQMNSLKPEDTAVYYCAADVWRVQHRGYNYWGQGTQVTVSS	high polyreactivity
QVQLVESGGGLVQAGGSLRLSCAASGRIFAAYAMGWYRQAPGKERELVAAITRRGSTYYADSVKGRFTISRDNDKKTVYFQMNSLKPEDTAVYYCNKVPLFQYSTAWYDYWGQGTQVTVSS	high polyreactivity
QDQHVESGGGLVQAGGSLRLSCAASGSNFVINAMGWYRQAPGKEREWVAAITSSGGSTYYADSVKGRFTISRDNAKNTVYLQMNSLKPEDTAVYYCAAYVRTAFGRMNYWGQGTLVTVSS	high polyreactivity
QVQLVESGGGLVQAGGSLRLSCAASGFIFGKNAMGWYRQAPGKERELVAVISWRGSSTYYADSVKGRFTISRDNAKNTVYLQMNSLNPEDTAVYYCAARYPARGTLYYWGQGTQVTVSS	low polyreactivity
QVQLVESGGGLVQAGGSLRLSCAASGRIFSFNAMGWYRPAPGKERELVATISWNGDSTYADSVKGRFTISRDNAKNTVYLQMNSLKPEDTAVYYCAVDVPPWDYDYWGQGTQVTVSS	low polyreactivity
QVHLVESGGGLVQAGGSLRLSCAASGSIFGSQNAMGWYRQAPGKERELVAAYYTARGARTYYADSVKGRFTISRDNAKNTVYLQMNSLKPEDTAVYYCAPRRYGRYRYDYWGQGTQVTVSS	low polyreactivity
QVQLVESGGGLVQAGGSLRLSCAASGFTLQVYDMGWYRQAPGKERELVADISGSGDSTNYADSVKGRFTISRDNAKNTVYLQMNSLKPEDNAVYYCAAEVRGGYYGYDYWGQGTQVTVSS	low polyreactivity
QVQLVESGGGLVQAGGSLRLSCAASGSTYAVNVMGWYRQAPGKERELVATITYRDGRTYYADSVKGRFTISRDNAKNTVYLQMNSLKPEDTAVYYCAADAYRAQGDYWGQGTQVTVSS	low polyreactivity
QVQLVESGGGLVQAGGSLRLSCAASGFIFDFYTMGWYRQAPGKERELVAAITNGGSTYYADSVKGRFTISRDNAKNTVYLQMNSLKPEDTAVYYCAAYYRSRHHGYDSWGQGTQVTVSS	low polyreactivity
QVQLVESGGGLVQAGGSLRLSCAASGSINELYAKGWYRQAPGKERELVASITWRGGSTYYADSVKGRFTISRDNAKNTVYLQMNSLKPEDTAVYDCAADVPTASGTYDYWGQGTQVTVSS	low polyreactivity
QVQLVESGGGLVQAGGSLRLSCAASGFIFATYAMGWYRQAPGKERELVAAINRGGSTYYADSVKGRFTISRDNAKNTVYLQMNSLKPEDTAVYYCAAAKRYPTSTWYGYWGQGTQVTVSS	high polyreactivity

Sequence	polyreactivity (PSR sort gate)
QVQLVESGGGLVQAGGSLRLSCAASGSTFVYNDMGWYRQAPGKEREFVAAITYSGSTYYADSVNGRFTISRDNAKNTVYLQMNSLKPEDTAVYYCNADPRRPVTSYDYWGQGTQVTVSS	low polyreactivity
QVQLVESGGGLVQAGGTLRLSCAASGSTFVRNAMGWYRQPPGKERELVAAISVDGSSTYYADSVKGRFTISRDNAKNTVYLQMNSLKPEDTAVYYCNADWDYRDFYDITYDYWGQGTQVTVSS	low polyreactivity
QVQLVESGGGLVQAGGSLRLSCAASGRIFHYAMGWYRQAPGKERELVAGISKRGGSTYYADSVKGRFTISRDNAKNTVYLQMNSLKPEDTAVYYCAAGRAYDGTKHDYWGQGTQVTVSS	high polyreactivity
QVQHVESGGGLVQAGGSLRLSCAASGFIFVSYTMGWYRHAPGKEWELVATITVSDGSTYYADSVKGRFTISRDNAKNTVYLQMNSLKPEDTAVYYCNKDKVVVRYDYWGQGTQVTVSS	low polyreactivity
QVQLVESGGGLVQAGGSLRLSCAASGSTFGGYTMGWYRQAPGKERELVAAITSGGGRTYYADSVKGRFTISRDNSKNTVYLQMNSLKPEDTAVYYCATGYKGLYWKYDYWGQGTLVTVSS	high polyreactivity
QDQLVESGGGLVQAAGSLRLTCAASGLTFAYYAMGWNRQAPGKERELVAAISWNGGRTYYADSVKGRFTISRDNAKNTVYLQMNSLKPEDTAVDYCAAEVTSSFYWGQGSQVTVSS	high polyreactivity
QVQLVESGGGLVQAGGSLRLSCADSGSTFRANAMGWYRQAPGKERELVAAISQSGGITYYADSVKGRFTISRDNAKNSVYLQMNSLKPEDTAVYYCAAEYWFYYVDSFYYWGQGTQVTVSS	high polyreactivity
QVQLVESGGGLVQAGGSLRVSCAASGLTFSVYTRGWYRQAPGKERELVAAITTSGGRTYYADSVKGRFTISRDNAKNTVYLQMNSLKPEDTAVYYCAAVRTGDTTGTMGYWGQGTQVTVSS	high polyreactivity
QVQLVESGGGLVQAGGSLRLSCAASGRIITGYAMGWYRQAPGKERELVAAISRGGSTNYADSVKGRFTISRDNAKNTVYLQMNSLKPEDTAVYYCAAGVHWDRGDYWGQGTQVTVSS	low polyreactivity
QVQLVESGGGLVQAGGSLRLSCAASGGTFRYYALGWYRQAPGKERALVAAISSGGSTNYADSVKGRFTISRDNAKNTVYLQMNSLKPEDTAVYYCAADVIYYYAYYTYDYWGQGTQVTVSS	low polyreactivity
QVQLVESGGGLVHAGGSLRLSCAAYGFIFRYYAMGRYRQAPGKEMELVATISSGGRTYYADSVKGRFTISRDNAKNTVYLQMNSLKPEDTAVYYCAKDYSWASYNHDYWGQGTQVTVSS	low polyreactivity
QVQLVESGGRLVQAGGSLRLSCAASGLIFAWYAMGWYRQAPGKQRELVATISWNGDRTYYADSVKVRFTISRDNAKNTVYLQMNSVKPVDSAVYYCAARFGSGFNYWGQGNQVTVSS	high polyreactivity
QVQLVESGGGLVHAGGSLRLSCATSGRTFKYNAMGWYRQAPGKEREFVAAISSRGGSTTYYADSVTGRFTISRDNAKNTVYLQMKSLKPEDTAVYYCADRTPPPASRSRVYYWGQCTQVTVSS	high polyreactivity
QVQLVESGGGLVQAGGSLRLSCAASGNTFYPYAMGWYRQAPGKERELVATIRGSDDSTYYADSVKGRFTISRDNAKNTVYLQMNSLKPEDTAVYDCAADDVVSTFLRGYVRYDYWGQGTQVTVSS	high polyreactivity
QVQLVESGGGLVQAGGSLRLSCAASGFTFQWYGMGWYRQAPGKERELVAAITWSGGRTNYADSVKGRFTISRDNAKNTVYLQMNSLKPEDTAVYYCNKVFPRRGGDDNYWGQGTQVTVSS	high polyreactivity
QVQLEESGGGLVQAGGSLRLSCAASGFIFGLNAMGWYRQAPGKERELVAGIRSGSSTNYADSVKGRFTISRDNAKNTVYLQMNSLKPEDTAVYYCATEGYWVYGFDDEYWGQGTQVTVSS	low polyreactivity
QVQLVESGGGLVQAGGRLRLSCAASGSIFGVYAMGWYRQSPGKERELVATISRSGAITYYADSVKGRFTISRDNAKNTVYLQMNSLKPEDTAVYYCAADFFSRDWGQGTQVTVSS	low polyreactivity
QVQLVESGGGLVQAGGSLRLSCAASGRTFGWYTMGRYRQAPGKERELVAGISSSGGSTYYADSVKGRFTISRDNAKNTVYLQMNSLKPEDTAVYYCARETYPHGLYYRPYDYWGQGTQVTVSS	low polyreactivity
QVQLVESAGGLVQAGGSLRLSCAASGSIFDDYAMGWYRQAPGKERELVAAISDSGGSTSYADSVKGRFTISRDNAKNTVYLQMNSLKPEDTAVYYCNADRDDDYDYWGQGTQVTLSS	low polyreactivity
QVQLVESGGGLVQAGGSLRLSCAASGSTFYIYAMGWYRQAPGKEREFVAAISRTGGSTYYADSVKGRFTISRDNAKNTVYLQMNSLKPEDTAVYYCAAEYKGFRGRYDYWGQGTQVTVSS	high polyreactivity
